Results reported in the Immune Epitope Database (IEDB).

Biological target: HLA-A*02:01
Test: IEDB peptide-MHC binding, purified MHC/competitive/radioactivity; ≥ and ≤ were set here for values at or beyond the usual limits of such assays
Conditions: source organism: Homo sapiens

ALCRWGLLLA
IC50: 0.139 µM

GIMIGVLVGV
IC50: 0.0368 µM

HLFIYATCLGL
IC50: 0.0543 µM

KIWEELSML
IC50: 0.167 µM

KMVELVHFL
IC50: 0.0098 µM

KVAELVHFLL
IC50: 0.0556 µM

LLGICLTSTV
IC50: 0.102 µM
